Test results from doi:10.1101/2024.03.11.584335.
Read-outs that look alike come from different tables or passages of the source.

Tests used:
RPAcoreΔP [1] = molecular target: T1, RPAcoreΔP (human, UniProt P27694;P15927;P35244 438-616;35-270;1-121); test: BLI
[2] = molecular target: RPAcoreΔP,W (minimal trimerization core, domains C, D, E) (human, UniProt P27694;P15927;P35244 438-616;35-174;1-121); test: BLI
RPAcoreΔP [3] = molecular target: T1, RPAcoreΔP; test: BLI; remark: listed apart in the source
[4] = molecular target: RPAcore;PolαCD (catalytic domain of DNA polymerase alpha) (human;human, UniProt P27694;P15927;P35244;P09884 438-616;1-270;1-121;335-1257, |); test: cryo-EM
Sequence of RPAcore;PolαCD (catalytic domain of DNA polymerase alpha) (P27694 438-616, chain 1 of 4): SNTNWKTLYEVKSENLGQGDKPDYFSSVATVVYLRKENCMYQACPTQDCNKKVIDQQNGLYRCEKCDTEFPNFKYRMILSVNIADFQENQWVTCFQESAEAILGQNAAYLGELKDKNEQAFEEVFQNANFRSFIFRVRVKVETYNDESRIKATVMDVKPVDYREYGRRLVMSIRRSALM
Sequence of RPAcore;PolαCD (catalytic domain of DNA polymerase alpha) (P15927 whole entry, chain 2 of 4, the tested form may be a part): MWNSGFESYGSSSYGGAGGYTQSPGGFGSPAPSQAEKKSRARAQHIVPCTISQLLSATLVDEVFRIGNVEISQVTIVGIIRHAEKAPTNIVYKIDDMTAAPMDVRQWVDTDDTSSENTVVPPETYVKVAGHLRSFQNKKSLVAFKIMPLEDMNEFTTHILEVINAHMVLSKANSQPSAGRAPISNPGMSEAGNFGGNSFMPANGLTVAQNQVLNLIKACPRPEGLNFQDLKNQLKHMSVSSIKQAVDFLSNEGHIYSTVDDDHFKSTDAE
Sequence of RPAcore;PolαCD (catalytic domain of DNA polymerase alpha) (P35244 whole entry, chain 3 of 4, the tested form may be a part): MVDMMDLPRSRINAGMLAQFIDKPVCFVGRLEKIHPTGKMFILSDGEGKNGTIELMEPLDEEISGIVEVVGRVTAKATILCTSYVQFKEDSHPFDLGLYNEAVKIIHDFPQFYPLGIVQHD
Sequence of RPAcore;PolαCD (catalytic domain of DNA polymerase alpha) (P09884 335-1257, chain 4 of 4): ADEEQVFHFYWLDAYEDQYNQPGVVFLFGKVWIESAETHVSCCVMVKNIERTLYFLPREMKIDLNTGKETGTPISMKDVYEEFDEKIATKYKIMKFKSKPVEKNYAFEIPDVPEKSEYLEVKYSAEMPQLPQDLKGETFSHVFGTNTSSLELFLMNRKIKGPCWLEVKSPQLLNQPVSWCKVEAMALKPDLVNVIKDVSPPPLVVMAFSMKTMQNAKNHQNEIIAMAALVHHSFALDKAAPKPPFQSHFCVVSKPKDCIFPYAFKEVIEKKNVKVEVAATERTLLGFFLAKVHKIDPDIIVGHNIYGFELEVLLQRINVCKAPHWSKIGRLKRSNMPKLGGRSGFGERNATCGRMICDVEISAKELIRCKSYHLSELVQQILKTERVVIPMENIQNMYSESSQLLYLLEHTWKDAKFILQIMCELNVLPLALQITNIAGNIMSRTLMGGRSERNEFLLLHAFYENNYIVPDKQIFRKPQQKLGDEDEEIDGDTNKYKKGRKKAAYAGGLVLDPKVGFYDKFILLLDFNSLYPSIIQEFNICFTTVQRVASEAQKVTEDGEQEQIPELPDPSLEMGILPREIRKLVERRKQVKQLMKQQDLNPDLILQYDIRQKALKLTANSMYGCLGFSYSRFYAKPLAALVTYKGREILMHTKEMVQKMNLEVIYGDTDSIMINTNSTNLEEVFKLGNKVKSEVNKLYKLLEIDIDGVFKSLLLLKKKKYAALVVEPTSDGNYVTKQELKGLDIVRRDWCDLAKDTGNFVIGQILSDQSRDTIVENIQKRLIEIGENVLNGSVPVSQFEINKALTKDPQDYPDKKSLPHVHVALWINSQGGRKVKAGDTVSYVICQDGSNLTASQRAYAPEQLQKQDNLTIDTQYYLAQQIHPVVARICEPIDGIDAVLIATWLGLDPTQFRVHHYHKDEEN

T1 sequence (P27694 438-616, stated change not applied, chain 1 of 3): as the sequence (P27694 438-616, chain 1 of 4) above
T1 sequence (P15927 35-270, stated change not applied, chain 2 of 3): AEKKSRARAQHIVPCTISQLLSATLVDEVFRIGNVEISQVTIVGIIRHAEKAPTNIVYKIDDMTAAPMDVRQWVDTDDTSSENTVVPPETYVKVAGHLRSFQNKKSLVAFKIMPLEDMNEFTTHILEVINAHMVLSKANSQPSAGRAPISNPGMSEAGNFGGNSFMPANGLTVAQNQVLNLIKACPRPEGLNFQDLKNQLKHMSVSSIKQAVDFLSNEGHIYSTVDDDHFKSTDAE
T1 sequence (P35244 whole entry, stated change not applied, chain 3 of 3): as the sequence (P35244 whole entry, chain 3 of 4, the tested form may be a part) above
Sequence of RPAcoreΔP,W (minimal trimerization core, domains C, D, E) (P27694 438-616, stated change not applied, chain 1 of 3): as the sequence (P27694 438-616, chain 1 of 4) above
Sequence of RPAcoreΔP,W (minimal trimerization core, domains C, D, E) (P15927 35-174, stated change not applied, chain 2 of 3): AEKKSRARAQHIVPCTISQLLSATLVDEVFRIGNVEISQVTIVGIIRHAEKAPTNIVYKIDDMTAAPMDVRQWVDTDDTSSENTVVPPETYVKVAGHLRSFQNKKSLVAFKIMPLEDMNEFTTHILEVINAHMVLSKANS
Sequence of RPAcoreΔP,W (minimal trimerization core, domains C, D, E) (P35244 whole entry, stated change not applied, chain 3 of 3): as the sequence (P35244 whole entry, chain 3 of 4, the tested form may be a part) above

B1: T8:P3 template:primer (mixed)
DNA: AATCTAGTAACATAGTATACATAAGCGCTCCAGGC
RNA: GCCUGGAGCGC
modifications: P3 is a chimeric RNA-DNA primer (RNA/DNA boundary not in the material) with 3'-dideoxycytidine
B1 showed a Kd (RPAcoreΔP [1]) of 50.3 ± 6.6 nM, a Kd [2] of 90.2 ± 4.5 nM and a Kd (RPAcoreΔP [3]) of 124 ± 15 nM.

B2: T9:P4 template:primer (mixed)
DNA: AATCTAGTAACATAGTATACATAGGCGCTCCAGGC
RNA: GCCUGGAGCGC
modifications: P4 primer contains U (RNA-DNA chimera?) and 3'-dideoxycytidine
B2: binds [4].
